Reference: ChEMBL document CHEMBL1150982, “Formation of the Michaelis complex without involvement of the prosthetic group dehydroalanine of histidine ammonialyase” (Bioorg Med Chem Lett, 1997)

Assays:
Details in all cases: Pseudomonas putida
[1] = compound: NC(Cc1[nH]cnc1[N+](=O)[O-])C(=O)O; assay: The kinetic constant with the compound as substrate of HAL mutant S143G was determined using L-hisdine as competitive inhibitor
[2] = substrate: NC(Cc1[nH]cnc1[N+](=O)[O-])C(=O)O; assay: (§1) The kinetic constant with the compound as substrate of S143T mutant enzyme was determined
[3] = substrate: N[C@@H](Cc1c[nH]cn1)C(=O)O; assay: as §1
[4] = substrate: NC(Cc1[nH]cnc1[N+](=O)[O-])C(=O)O; assay: (§2) The kinetic constant with the compound as substrate of S143G mutant enzyme was determined
[5] = substrate: N[C@@H](Cc1c[nH]cn1)C(=O)O; assay: as §2
[6] = compound: NC(Cc1[nH]cnc1[N+](=O)[O-])C(=O)O; assay: The kinetic constant with the compound as substrate of wild-type Pseudomonas ATCC 11299b was determined using L-hisdine as competitive inhibitor
[7] = compound: NC(Cc1[nH]cnc1[N+](=O)[O-])C(=O)O; assay: The kinetic constant with the compound as substrate of recombinant wild-type Escherichia coli BL21 was determined using L-hisdine as competitive inhibitor
[8] = substrate: NC(Cc1[nH]cnc1[N+](=O)[O-])C(=O)O; assay: (§3) The kinetic constant with the compound as substrate of recombinant wild-type HAL enzyme was determined
[9] = substrate: N[C@@H](Cc1c[nH]cn1)C(=O)O; assay: as §3
[10] = substrate: NC(Cc1[nH]cnc1[N+](=O)[O-])C(=O)O; assay: (§4) The kinetic constant with the compound as substrate of S143A mutant enzyme was determined
[11] = substrate: N[C@@H](Cc1c[nH]cn1)C(=O)O; assay: as §4

B1: Histidine ammonia-lyase (Homo sapiens), P42357 (protein)
chain: MPRYTVHVRGEWLAVPCQDAQLTVGWLGREAVRRYIKNKPDNGGFTSVDDAHFLVRRCKGLGLLDNEDRLEVALENNEFVEVVIEGDAMSPDFIPSQPEGVYLYSKYREPEKYIELDGDRLTTEDLVNLGKGRYKIKLTPTAEKRVQKSREVIDSIIKEKTVVYGITTGFGKFARTVIPINKLQELQVNLVRSHSSGVGKPLSPERCRMLLALRINVLAKGYSGISLETLKQVIEMFNASCLPYVPEKGTVGASGDLAPLSHLALGLVGEGKMWSPKSGWADAKYVLEAHGLKPVILKPKEGLALINGTQMITSLGCEAVERASAIARQADIVAALTLEVLKGTTKAFDTDIHALRPHRGQIEVAFRFRSLLDSDHHPSEIAESHRFCDRVQDAYTLRCCPQVHGVVNDTIAFVKNIITTELNSATDNPMVFANRGETVSGGNFHGEYPAKALDYLAIGIHELAAISERRIERLCNPSLSELPAFLVAEGGLNSGFMIAHCTAAALVSENKALCHPSSVDSLSTSAATEDHVSMGGWAARKALRVIEHVEQVLAIELLAACQGIEFLRPLKTTTPLEKVYDLVRSVVRPWIKDRFMAPDIEAAHRLLLEQKVWEVAAPYIEKYRMEHIPESRPLSPTAFSLQFLHKKSTKIPESEDL
B1 was tested, and the Km [1] was 5.3 mM, the Km [2] was 12.8 mM and the Vmax [2] was 0.87 IU mg-1. It also gave a Km [3] of 3.1 mM, a Vmax [3] of 0.00047 IU mg-1 and a Km [4] of 4 mM. The Vmax [4] was 0.52 IU mg-1, the Km [5] was 5.3 mM and the Vmax [5] was 0.0047 IU mg-1. It also gave a Km [6] of 4 mM, a Km [7] of 5.2 mM and a Km [8] of 7.7 mM. The Vmax [8] was 0.85 IU mg-1, the Km [9] was 5.2 mM and the Vmax [9] was 25 IU mg-1. The Km [10] was 9.8 mM, the Vmax [10] was 0.87 IU mg-1 and the Km [11] was 7.5 mM. The Vmax [11] was 0.0214 IU mg-1.
